Measured values from US20240280570A1 (KING ABDULLAH UNIVERSITY OF SCIENCE AND TECHNOLOGY, published 2024).

Target: T1, FRB-24-mCherry-Wp3-TwinStrep
T1 construct: also called Negative control (mCherry); FRB-mCherry fusion
Assay: OECT transfer curves (ID against VG), PEDOT:PSS channel

B1: GFPnanobody-8aa-SpyCatcher-3C cleavage site-His10 (VHH)
VHH: QVQLVESGGALVQPGGSLRLSCAASGFPVNRYSMRWYRQAPGKEREWVAGMSSAGDRSSYEDSVKGRFTISRDDARNTVYLQMNSLKPEDTAVYYCNVNVGFEYWGQGTQVTVSS
notes: also called anti-GFP nanobody; GFP nanobody-SpyCatcher
- binding result: no binding (tested: 2 x 10^-8 M)
